B1: RH1-LZI fragment of JIP3 (residues 22-187) (domain or fragment, mouse)
chain: GSHGSVMSERVSGLAGSIYREFERLIHCYDEEVVKELMPLVVNVLENLDSVLSENQEHEVELELLREDNEQLLTQYEREKALRKQAEEKFIEFEDALEQEKKELQIQVEHYEFQTRQLELKAKNYADQISRLEERESEMKKEYNALHQRHTEMIQTYVEHIERSKMQQV
modifications: labelled with Monolith NT.115 Protein Labelling Kit BLUE NHS in the SV-FDS experiments only
notes: Gly-Ser-His residues remaining after the thrombin cleavage; The construct is mouse JIP3; Results and modelling speak of human JIP3 (NP_055948.2); also called JIP3-RH1-LZI; RH1-LZI tandem of JIP3; not shown: His-thioredoxin, N-terminal, cleaved
B2: RH1-lz3 fragment of JIP3 (residues 22-100) (domain or fragment, mouse, UniProt Q9ESN9-1 22-100, looked up)
chain: GSVMSERVSGLAGSIYREFERLIHCYDEEVVKELMPLVVNVLENLDSVLSENQEHEVELELLREDNEQLLTQYEREKAL
modifications: labelled with Protein Labeling Kit Blue-NHS in the MST experiment only
notes: cloned, expressed and purified similarly as the other JIP3 fragments, which are of mouse JIP3 NP_038959.2; also called JIP3-RH1-lz3; JIP3-RH1-Lz3; source: E. coli Rosetta, purified similarly as the other JIP3/4 fragments; not shown: His-thioredoxin, N-terminal, cleaved
B3: LZI fragment of JIP3 (residues 71-187) (domain or fragment, mouse, UniProt Q9ESN9-1 71-187, looked up)
chain: SENQEHEVELELLREDNEQLLTQYEREKALRKQAEEKFIEFEDALEQEKKELQIQVEHYEFQTRQLELKAKNYADQISRLEERESEMKKEYNALHQRHTEMIQTYVEHIERSKMQQV
modifications: labelled with Monolith NT.115 Protein Labelling Kit BLUE NHS in the SV-FDS experiments only
notes: also called JIP3-LZI; LZ1 fragment; not shown: His-thioredoxin, N-terminal, cleaved

Assays:
[1] = molecular target: RILPL2 RH1-cc (Homo sapiens) (UniProt Q969X0); assay: ITC; conditions: cited from earlier work
Sequence of RILPL2 RH1-cc (Homo sapiens) (Q969X0 1-97): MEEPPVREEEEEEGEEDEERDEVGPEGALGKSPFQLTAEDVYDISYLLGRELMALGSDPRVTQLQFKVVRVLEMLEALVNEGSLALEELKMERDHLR

[2] = molecular target: T1, human myosin 5a globular tail domain (GTD; residues 1463-1855) (human, UniProt Q9Y4I1 1463-1855); assay: AUC; sedimentation velocity, absorbance at 280 nm, 20 °C, 42000 rpm; 20 mM Hepes pH 7.5, 150 mM NaCl, 2 mM MgCl2, 1 mM TCEP; mixtures 22.5 uM JIP3-RH1-LZI + 7.5 uM myo5a-GTD and 7.5 uM JIP3-RH1-LZI + 22.5 uM myo5a-GTD; conditions: both partners purified
T1 construct: myosin 5a (myo5a), human, globular tail domain, residues 1463-1855; pProEx HTB vector with N-terminal 6x Histidine tag and a rTEV cleavage site; the methods describe no cleavage step; also called myo5a-GTD; myo5A-GTD; source: E. coli Rosetta, purified (His-Trap, Superdex 75 gel filtration)
T1 sequence (Q9Y4I1 1463-1855): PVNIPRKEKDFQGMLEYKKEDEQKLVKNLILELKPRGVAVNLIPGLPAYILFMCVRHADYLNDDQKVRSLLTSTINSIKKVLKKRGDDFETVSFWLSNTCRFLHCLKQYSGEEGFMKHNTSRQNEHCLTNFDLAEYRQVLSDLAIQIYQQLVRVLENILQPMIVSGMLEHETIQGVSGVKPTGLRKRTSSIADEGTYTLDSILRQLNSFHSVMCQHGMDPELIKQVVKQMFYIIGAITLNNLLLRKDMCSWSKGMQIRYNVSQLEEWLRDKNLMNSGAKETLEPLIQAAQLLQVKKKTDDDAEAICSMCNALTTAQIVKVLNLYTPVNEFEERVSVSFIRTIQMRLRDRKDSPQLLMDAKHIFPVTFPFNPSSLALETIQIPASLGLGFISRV

[3] = molecular target: the molecule itself; assay: AUC; sedimentation velocity with fluorescence detection (SV-FDS), 20 °C, 50,000 rpm; dilution series of Blue-NHS-labelled fragment (RH1-LZI 460 nM to 1.1 nM; LZI 770 nM to 2.4 nM; above 60 nM mixed with unlabelled protein); dimer to monomers
[4] = molecular target: the molecule itself; assay: SEC-MALS; Superdex 200 10/300 GL increase, 20 mM Hepes pH 7.5, 200 mM NaCl, 0.5 ml/min; oligomeric state of the fragment
[5] = molecular target: T1, human myosin 5a globular tail domain …; assay: MST; 25 nM Blue-NHS-labelled JIP3 fragment, myo5a-GTD titrated (16 1:1 dilutions); 20 mM hepes pH 7.5, 150 mM NaCl, 2 mM MgCl2, 0.5 mM TCEP, 0.05% tween; 25 °C; three independent replicates; conditions: both partners purified

Molecule | Kd [1] [nM] | binding result [2] | Kd [3] [nM] | stoichiometry N [4] | Kd [5] [nM]
myosin Va GTD (from UniProt Q9Y4I1) | 300 |  |  |  | 
B1 |  | binds | < 1 | 2 | 
B2 |  |  |  | 2 | 2200 ± 500
B3 |  |  | 110 | 2 | 
